Results: patent US20020002277A1, “Inhibitors of platelet activation and recruitment” (priority 1998, published 2002)
Values belong to the molecule of their own block, whether it stands above or below them.

How the values were obtained:
platelets = test: Platelet aggregation in platelet-rich plasma from volunteers; assay type: cell-based, human; details: alanine replacement mutant
Method: After obtaining informed consent from volunteers, blood was collected via plastic tubing using acid citrate-dextrose (38 mM citric acid; 75 mM sodium citrate; 135 mM glucose) as anticoagulant. Where indicated, volunteers had ingested 650 mg acetylsalicylic acid (ASA) 18 h prior to blood donation. Platelet-rich plasma (PRP) was prepared with an initial whole blood centrifugation (200 g, 15 min, 25° C.), and a second centrifugation of the PRP (90 g, 10 min) to eliminate residual erythrocytes and leukocytes. The stock suspension of PRP was maintained at room temperature under 5% CO2-air.
Total volumes were adjusted to 300 μl with TSG buffer (Marcus et al., J. Clin. Invest. 88:1690, 1991; Marcus et al., J. Clin. Invest. 99:1351, 1997). After the 3 min preincubation, platelet agonists (ADP or collagen) were added at the concentrations indicated, and the aggregation response recorded for 4-5 min.

[1] = Enzymatic (ATPase and ADPase) activity of site-directed CD39 mutants; assay type: biochemical; details: alanine replacement in conserved apyrase regions
Method: Mutants were assayed for enzymatic (ATPase and ADPase) and platelet inhibitory (dose-dependent inhibition of platelet aggregation) activities. For one series of mutants, residues within the conserved apyrase regions were replaced with alanine.

[2] = Phosphate release assay for ATPase activity; assay type: biochemical; details: 100 μL of 10-fold concentrated CM from COS-1 transfectants; 10X buffer with 30 mM cold ATP
[3] = Phosphate release assay for ATPase activity; assay type: biochemical; details: for CPM × 10^3 (net counts), ATPase activity in CM: 5 days (Table 3)
Method: This example describes an ATPase assay that may be used to track enzyme activity. Samples (approximately 100 μl of either concentrated CM or purified polypeptide) are combined with 20 μl of 10X assay buffer (200 mM HEPES, 1.2 M NaCl, 50 mM KCl, 15 mM CaCl2, 15 mM MgCl2 and 3 mM ATP) and sterile water is added to a final volume of 200 μl. Radiolabeled ATP (0.8 μCi γ [^32P] ATP; Amersham, Arlington Heights, Ill.) is added and the mixture incubated for 20 minutes at 37° C. Stop mix (0.5 ml of 20% activated charcoal/1 M HCl) is added and the reaction is placed on ice for 10 minutes. After centrifugation (14K rpm for 10 minutes), the supernatant is assayed for free ^32P using a scintillation counter. Data are expressed as raw counts or net counts, or as picomoles of ATP degraded per minute.
The transfections were repeated and the CM (10, 20 and 30 μL, unconcentrated) was assayed essentially as described in Example 7. […] ATPase levels in CM from COS-1 cells transfected with pIL2LFlagSolCD39 increased with time in culture over at least 4 days post-transfection.
To determine whether activity was affected by removal of the N-terminal FLAG® tag, COS-1 cells were transfected with pIL2LFlagSolCD39 and pIL2LSolCD39 and supernatants (sups) were harvested after 5 days. Samples of 10, 20 and 30 μL of 1x sups were assayed for ATPase activity as described in Example 7.
The expression of Trim1 and Trim2 constructs was analyzed in COS-1 cells cultured in 10 cm plates. After 5 days of incubation, 1x supernatants were examined via ELISA (using anti-CD39) and the phosphate-release assay described in Example 7. […] Expression levels, however, appeared to be reduced 3-4 fold.

[4] = biological target: T1, N-terminally FLAG-tagged soluble human CD39 secreted from COS-1 cells transfected with pIL2LFlagSolCD39 (human, UniProt P49961 38-476); test: immunoaffinity depletion of COS-1 conditioned medium with conjugated Affigel beads, ATPase activity left in the supernatant
T1 construct: The cleavage site of the leader was not determined for the FLAG-tagged form; In conditioned medium, about 66 kD, glycosylated; also called pIL2LFlagSolCD39 product; tagged soluble CD39
T1 sequence: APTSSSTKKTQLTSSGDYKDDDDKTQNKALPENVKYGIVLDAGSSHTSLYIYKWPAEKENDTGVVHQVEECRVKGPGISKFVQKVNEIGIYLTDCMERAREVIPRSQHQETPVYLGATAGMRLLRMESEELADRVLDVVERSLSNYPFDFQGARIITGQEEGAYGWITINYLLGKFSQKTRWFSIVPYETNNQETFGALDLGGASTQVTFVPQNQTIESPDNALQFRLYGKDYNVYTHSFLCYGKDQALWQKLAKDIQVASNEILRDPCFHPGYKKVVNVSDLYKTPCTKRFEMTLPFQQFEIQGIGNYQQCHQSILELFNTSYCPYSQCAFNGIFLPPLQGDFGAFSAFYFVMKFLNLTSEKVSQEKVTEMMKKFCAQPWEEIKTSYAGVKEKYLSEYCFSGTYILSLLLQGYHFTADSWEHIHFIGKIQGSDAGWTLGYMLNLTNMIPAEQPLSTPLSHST
Method: CM was collected from COS-1 cells transfected with pIL2LFlagSolCD39, which had been cultured for 5 days in DMEM/F12 supplemented with 5% FCS. A 100 μl aliquot of drained Affigel beads (AG) conjugated with either chicken ovalbumin, antiFLAG mAb, or anti-CD39 mAb was added per ml of CM. […] Each cycle involved continuous gentle agitation of the slurry for 14 h at 4° C. followed by centrifugation to recover supernatants for a subsequent binding cycle or for ATPDase activity measurements.

B1: E174A mutant: CD39 mutant, Glutamate 174 replaced with alanine (protein, UniProt P49961 1-510, looked up, variant E174A)
Ectonucleoside triphosphate …: MEDTKESNVKTFCSKNILAILGFSSIIAVIALLAVGLTQNKALPENVKYGIVLDAGSSHTSLYIYKWPAEKENDTGVVHQVEECRVKGPGISKFVQKVNEIGIYLTDCMERAREVIPRSQHQETPVYLGATAGMRLLRMESEELADRVLDVVERSLSNYPFDFQGARIITGQEAGAYGWITINYLLGKFSQKTRWFSIVPYETNNQETFGALDLGGASTQVTFVPQNQTIESPDNALQFRLYGKDYNVYTHSFLCYGKDQALWQKLAKDIQVASNEILRDPCFHPGYKKVVNVSDLYKTPCTKRFEMTLPFQQFEIQGIGNYQQCHQSILELFNTSYCPYSQCAFNGIFLPPLQGDFGAFSAFYFVMKFLNLTSEKVSQEKVTEMMKKFCAQPWEEIKTSYAGVKEKYLSEYCFSGTYILSLLLQGYHFTADSWEHIHFIGKIQGSDAGWTLGYMLNLTNMIPAEQPLSTPLSHSTYVFLMVLFSLVLFTVAIIGLLIFHKPSYFWKDMV
effect on platelet responsiveness (platelets): no effect on platelet responsiveness | enzymatic activity of mutant [1]: completely devoid of enzymatic activity

B2: pIL2LFlagSolCD39: N-terminally FLAG-tagged solCD39 with human proinsulin/IL2 leader and 12 mature IL2 residues (SEQ ID NO:25); COS-1 CM (protein)
chain: MALWIDRMQLLSCIALSLALVTNSAPTSSSTKKTQLTSSGDYKDDDDKTQNKALPENVKYGIVLDAGSSHTSLYIYKWPAEKENDTGVVHQVEECRVKGPGISKFVQKVNEIGIYLTDCMERAREVIPRSQHQETPVYLGATAGMRLLRMESEELADRVLDVVERSLSNYPFDFQGARIITGQEEGAYGWITINYLLGKFSQKTRWFSIVPYETNNQETFGALDLGGASTQVTFVPQNQTIESPDNALQFRLYGKDYNVYTHSFLCYGKDQALWQKLAKDIQVASNEILRDPCFHPGYKKVVNVSDLYKTPCTKRFEMTLPFQQFEIQGIGNYQQCHQSILELFNTSYCPYSQCAFNGIFLPPLQGDFGAFSAFYFVMKFLNLTSEKVSQEKVTEMMKKFCAQPWEEIKTSYAGVKEKYLSEYCFSGTYILSLLLQGYHFTADSWEHIHFIGKIQGSDAGWTLGYMLNLTNMIPAEQPLSTPLSHST
modifications: CDS (1)..(1461)
notes: COS-1 CM
CPM Release × 10^3 (raw counts), ATPase activity in concentrated CM [2]: 99.96 CPM × 10^3 | CPM × 10^3 (net counts), ATPase activity in CM ([3]; 10 μL 1x COS-1 supernatant): 23.6 CPM × 10^3 | CPM Release × 10^3 (net counts), ATPase activity in CM ([3]; 10 μL unconcentrated COS-1 CM): 24.71 CPM × 10^3 | CPM × 10^3 (net counts), ATPase activity in CM ([3]; 20 μL 1x COS-1 supernatant): 40.2 CPM × 10^3 | CPM Release × 10^3 (net counts), ATPase activity in CM ([3]; 20 μL unconcentrated COS-1 CM): 43.92 CPM × 10^3 | CPM × 10^3 (net counts), ATPase activity in CM ([3]; 30 μL 1x COS-1 supernatant): 54.4 CPM × 10^3 | CPM Release × 10^3 (net counts), ATPase activity in CM ([3]; 30 μL unconcentrated COS-1 CM): 56.93 CPM × 10^3

binding result [4]: no binding
B3: chicken ovalbumin conjugated to Affigel beads (other, UniProt P01012 2-386, looked up)
chain: GSIGAASMEFCFDVFKELKVHHANENIFYCPIAIMSALAMVYLGAKDSTRTQINKVVRFDKLPGFGDSIEAQCGTSVNVHSSLRDILNQITKPNDVYSFSLASRLYAEERYPILPEYLQCVKELYRGGLEPINFQTAADQARELINSWVESQTNGIIRNVLQPSSVDSQTAMVLVNAIVFKGLWEKAFKDEDTQAMPFRVTEQESKPVQMMYQIGLFRVASMASEKMKILELPFASGTMSMLVLLPDEVSGLEQLESIINFEKLTEWTSSNVMEERKIKVYLPRMKMEEKYNLTSVLMAMGITDVFSSSANLSGISSAESLKISQAVHAAHAEINEAGREVVGSAEAGVDAASVSEEFRADHPFLFCIKHIATNAVLFFGRCVSP
notes: Control beads; also called ovalbumin-conjugated AG; ovalbumin-conjugated beads
